# In patent publication US20070128192A1:
# Substitutions are numbered along the chain they refer to.
# B1: BAK1187B4 scFv (scFv, part only; not given: Linker, part only)
# scFv, part: QVQLVQSGAEVKKPGASVKVSCKASGYTFTNYGLSWVRQAPGQGLEWMGWIDDDSGTTIYGQEFQGRVTMTTDTSTSTAYMELRSLRSDDTAVYYCARDSSSSWARWFFDLWGRGTLVTVSSSYVLTQPPSVSVAPGKTARITCGGNIIGSKLVHWYQQKPGQAPVLVIYDDGDRPSGIPERFSGSNSGNTATLTISRVEAGDEADYYCQVWDTGSDPVVFGGGTKLTVL
# B2: BAK1167F2 scFv (scFv, part only; not given: Linker, part only)
# scFv, part: B1 scFv, part with T30E, N31Q, Y32T, L34V, D52S, D53A, D54N, S55N, T57D, I59N
# B3: BAK1166G2 scFv (scFv, part only; not given: Linker, part only)
# scFv, part: B1 scFv, part with T30A, Y32T, L34I, D52S, D53A, D54N, S55N, T57D, I59N
# B4: BAK1185E1 scFv (scFv, part only; not given: Linker, part only)
# scFv, part: B1 scFv, part with D52N, D54A, S55T, T57D, I59Q
# B5: BAK1105H3 scFv (scFv, V domains shown, part only)
# VH: QVQLVQSGAEVKKPGASVKVSCKASGYTFTNYGLSWVRQAPGQGLEWMGWISGLNGETLYGQEFQGRVTMTTDTSTSTAYMELRSLRSDDTAVYYCARDSSSSWARWFFDLWGRGTLVTVSS
# VL: SYVLTQPPSVSVAPGKTARITCGGNIIGSKLVHWYQQKPGQAPVLVIYDDGDRPSGIPERFSGSNSGNTATLTISRVEAGDEADYYCQVWDTGSDPVVFGGGTKLTVL
# modifications: scFv linker not given
# B6: BAK1111D10 scFv (scFv, V domains shown, part only)
# VH: B5 VH with S52A, G53T, L54P, N55D, E57Q, L59S, S101N
# VL: B5 VL
# modifications: scFv linker not given
# B7: BAK1184C8 scFv (scFv, V domains shown, part only)
# VH: B5 VH with L54S, E57Y, L59S
# VL: B5 VL
# modifications: scFv linker not given
# B8: BAK1185F8 scFv (scFv, V domains shown, part only)
# VH: B5 VH with N31D, S52R, G53N, L54I, N55D, E57Y, L59I
# VL: B5 VL
# modifications: scFv linker not given
# B9: BAK1167F4 scFv (scFv, V domains shown, part only)
# VH: B5 VH with T30I, N31D, Y32T, L34V, G53A, L54N, E57D, L59N
# VL: B5 VL
# modifications: scFv linker not given
# B10: BAK278D6 scFv (scFv, V domains shown)
# VH: EVQLVQSGAEVKKPGASVKVSCKASGYTFRNYGLSWVRQAPGQGLEWMGWISANNGDTNYGQEFQGRITMTTETSTNTAHMELRSLRSDDTAVYYCVRDSSSNWARWFFDLWGKGTMVTVSS
# VL: B5 VL with K16Q, T21P, I26N, I47V, V77I, E78D
# Target: human IL-13 (human) (UniProt P35225)
# Experiment: cell-based or functional assay
row,"IC50, TF-1 cell proliferation assay",Binder
1,0.1 nM,B1
2,0.2 nM,B2
3,0.2 nM,B3
4,0.2 nM,B4
5,0.2 nM,B5
6,0.2 nM,B6
7,0.2 nM,B7
8,0.2 nM,B8
9,0.2 nM,B9

# Target: human IL-13 variant (Q130R), baculovirus expressed, carboxyl terminus affinity tag (human) (UniProt P35225)
# Experiment: not given
row,"IC50 (read off the curve); TF-1 cell proliferation, 25 ng/ml human IL-13 variant (Q130R)",Binder
1,80 nM,B10
